Publication PMC2920069, “KTN (RCK) Domains Regulate K^+ Channels and Transporters by Controlling the Dimer-Hinge Conformation” (Structure(London, England:1993), 2009)

Assays:
[1] = molecular target: the molecule itself; test: SEC-MALS; size exclusion chromatography with in-line MiniDAWN TREOS light scattering and refractive index detection; 50 mM HEPES pH 7.5, 150 mM KCl, 1 mM DTT or TCEP; with and without GSH, S-lactoyl-GSH or N-ethylsuccinimido-S-glutathione and NAD+ or NADH (1 mM)
[2] = molecular target: the molecule itself; test: native gel or EMSA; blue native PAGE (Novex 4-16% BisTris) of membranes solubilized with 1.5% dodecylmaltoside, without KefF; western blot with anti-His6; factor 1.8 for true mass:mobility-based mass

Row | Protein | stoichiometry N [1] | stoichiometry N [2]
1 | KefC-CTD:KefF fusion protein (complex, E. coli, synthetic flexible 12-residue linker with a thrombin motif that is not cleaved under the conditions used; KefF, ancillary subunit of the E. coli KefC system, full length; pET-28-derived vector; tag removed with thrombin overnight at 4 °C; also called KefC-CTD/KefF complex; fusion complex; source: E. coli BL21(DE3), purified (Ni-NTA with imidazole gradient, Superdex 200 gel filtration); not shown: …) RVIIAGFGRFGQITGRLLLSSGVKMVVLDHDPDHIETLRKFGMKVFYGDATRMDLLESAGAAKAEVLINAIDDPQTNLQLTEMVKEHFPHLQIIARARDVDHYIRLRQAGVEKPERETFEGALKTGRLALESLGLGPYEARERADVFRRFNIQMVEEMAMVENDTKARAAVYKRTSAMLSEIITEDREHLSLIQRHGWQGTEEGKHTGNMADEPETKPSSTSGGLVPRGSSGMILIIYAHPYPHHSHANKRMLEQARTLEGVEIRSLYQLYPDFNIDIAAEQEALSRADLIVWQHPMQWYSIPPLLKLWIDKVFSHGWAYGHGGTALHGKHLLWAVTTGGGESHFEIGAHPGFDVLSQPLQATAIYCGLNWLPPFAMHCTFICDDETLEGQARHYKQRLLEWQEAHHG | 2 | 
2 | full-length recombinant KefC (natural protein, E. coli, UniProt P03819 1-620, looked up, E. coli KefC glutathione-gated K+ efflux system, full length; Blue native PAGE was done without KefF; Also used here as the wild-type KefC of the efflux experiments (plasmids pSM12 and pKefFKefCHis6 in E. coli MJF335); also called whole KefC channels; source: E. coli, overexpressed, bacterial membranes solubilized with 1.5% dodecylmaltoside) MDSHTLIQALIYLGSAALIVPIAVRLGLGSVLGYLIAGCIIGPWGLRLVTDAESILHFAEIGVVLMLFIIGLELDPQRLWKLRAAVFGCGALQMVICGGLLGLFCMLLGLRWQVAELIGMTLALSSTAIAMQAMNERNLMVTQMGRSAFAVLLFQDIAAIPLVAMIPLLATSSASTTMGAFALSALKVAGALVLVVLLGRYVTRPALRFVARSGLREVFSAVALFLVFGFGLLLEEVGLSMAMGAFLAGVLLASSEYRHALESDIEPFKGLLLGLFFIGVGMSIDFGTLLENPLRIVILLLGFLIIKIAMLWLIARPLQVPNKQRRWFAVLLGQGSEFAFVVFGAAQMANVLEPEWAKSLTLAVALSMAATPILLVILNRLEQSSTEEAREADEIDEEQPRVIIAGFGRFGQITGRLLLSSGVKMVVLDHDPDHIETLRKFGMKVFYGDATRMDLLESAGAAKAEVLINAIDDPQTNLQLTEMVKEHFPHLQIIARARDVDHYIRLRQAGVEKPERETFEGALKTGRLALESLGLGPYEARERADVFRRFNIQMVEEMAMVENDTKARAAVYKRTSAMLSEIITEDREHLSLIQRHGWQGTEEGKHTGNMADEPETKPSS |  | 2
